{"source": "patent US20260234251A1", "about": "(IMNOTECH, published 2026)", "target": "T1, human CD2 (cluster of differentiation 2) (human, UniProt P06729 25-351)", "T1 construct": "Presented on cells: human CD8+ T cells, CD2-transduced U698M B-cell lymphoma cells, Jurkat cells and human PBMCs; also called CD2 target antigen; CD2 surface marker", "T1 sequence": "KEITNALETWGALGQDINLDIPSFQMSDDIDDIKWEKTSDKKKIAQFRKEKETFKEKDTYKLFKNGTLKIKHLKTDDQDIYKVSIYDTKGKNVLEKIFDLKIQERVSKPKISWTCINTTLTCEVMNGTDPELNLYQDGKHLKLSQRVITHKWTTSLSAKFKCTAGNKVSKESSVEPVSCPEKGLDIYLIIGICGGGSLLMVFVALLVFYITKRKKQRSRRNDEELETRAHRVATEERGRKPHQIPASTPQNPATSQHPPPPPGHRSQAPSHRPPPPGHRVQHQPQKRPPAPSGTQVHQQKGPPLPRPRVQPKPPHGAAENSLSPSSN", "experiment": "flow cytometry titration on human CD8+ T cells, one-site specific binding fit, triplicates", "description": "Determined affinity binding curves for CD2-sdAb (B) at different concentrations on human CD8+ T cells. R3b23-sdAb served as a negative control for unspecific binding (A). Binding of CD2-sdAb (B) is shown as a fraction of the maximum specific binding (Bₘₐₓ) and the binding intensity of R3b23-sdAb (A) is shown via the MFI at the different concentrations. Measurements were performed in triplicates and data is depicted on a semi-logarithmic scale. The dissociation constant (Ko) for CD2 was calculated based of one-site specific binding and is 2.3×10⁻⁹ [M]."}
{"binder": "anti-CD2 single domain antibody according to SEQ ID No. 18 (VHH, also called CD2-sdAb; anti-CD2-sdAb) VHH: QVQLQESGGGSVQPGGSLRLSCTVSGRTFSNYAVGWFRQAPGKEREFVATITGSGTAYADSVKGRFTISRDNAKNTVYLQMNSLKPEDTAVYYCAATWSSGYTFRSPTQYDYWGQGTQVTVSS", "values": [{"measurement": "Kd", "result": 2.3, "unit": "nM"}]}
